The results in this text go back to article PMC10147376.

This assay concerns the target Flotillin A (FloA) tagged with hexa-histidine (floA-6xHis) (S. aureus Newman). Description: pull-down; Ni-NTA (IMAC) affinity chromatography of S. aureus Newman membranes solubilised in 50 mM Tris HCl pH 8, 250 mM NaCl, 1% DDM, 4°C; FloA-His held, IsdF-3xFLAG in the 50 mM imidazole eluate detected by anti-FLAG blot; control strain with untagged FloA WT set to 1; called co-immunoprecipitation by the paper.

Flotillin A (FloA) tagged with hexa-histidine (floA-6xHis) (S. aureus Newman), sequence (A6QHB6 whole entry): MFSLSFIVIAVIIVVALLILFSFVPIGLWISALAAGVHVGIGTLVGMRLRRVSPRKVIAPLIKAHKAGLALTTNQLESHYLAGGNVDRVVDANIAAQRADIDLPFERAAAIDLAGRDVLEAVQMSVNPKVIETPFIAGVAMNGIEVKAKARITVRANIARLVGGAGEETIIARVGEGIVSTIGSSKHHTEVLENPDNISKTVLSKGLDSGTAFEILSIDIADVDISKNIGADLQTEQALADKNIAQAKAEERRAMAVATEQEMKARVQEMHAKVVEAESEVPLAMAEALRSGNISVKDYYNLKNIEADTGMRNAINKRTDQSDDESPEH

As for “IsdF with a triple FLAG tag (pRB474:isdF-3xFLAG) (from UniProt Q2FHU7 1-322) (natural protein)”, the fold IsdF-3xFLAG signal in the Ni-NTA eluate against the strain with untagged FloA WT (set to 1) was found to be 3 fold.
